Measurements: the Immune Epitope Database (IEDB)

What was measured:
[1] = biological target: HLA-A*02:02; assay: IEDB peptide-MHC binding, purified MHC/competitive/radioactivity; filed as Kd, often an IC50 or EC50 that approximates it; ≥ and ≤ were set here for values at or beyond the usual limits of such assays
[2] = biological target: HLA-A*02:03; assay: as above
[3] = biological target: HLA-A*02:06; assay: as above
[4] = biological target: HLA-A*03:01; assay: IEDB peptide-MHC binding, purified MHC/direct/fluorescence; filed as Kd, often an IC50 or EC50 that approximates it; ≥ and ≤ were set here for values at or beyond the usual limits of such assays
[5] = biological target: HLA-A*31:01; assay: as above
[6] = biological target: HLA-A*02:01; assay: as above
[7] = biological target: HLA-B*15:01; assay: as above
[8] = biological target: HLA-B*40:01; assay: as above; conditions: source organism: Influenza A virus (A/Hong Kong/1131/1998(H1N1))
[9] = biological target: HLA-A*01:01; assay: as above
[10] = biological target: HLA-B*27:05; assay: as above; conditions: source organism: SARS-CoV1
[11] = biological target: HLA-B*58:01; assay: as above; conditions: source organism: SARS-CoV1
[12] = biological target: HLA-A*11:01; assay: as above; conditions: source organism: SARS-CoV1
[13] = biological target: HLA-A*69:01; assay: as above; conditions: source organism: Rickettsia prowazekii
[14] = source organism: Vaccinia virus WR
[15] = source organism: SARS coronavirus Tor2
[16] = source organism: Mammarenavirus choriomeningitidis
[17] = source organism: Coxiella burnetii
[18] = source organism: Salmonella enterica subsp. enterica serovar Typhimurium
[19] = source organism: Salmonella enterica
[20] = source organism: Brucella melitensis

Row | Sequence | Kd [1, 14] | Kd [2, 14] | Kd [3, 14] | also measured
1 | KTIAVSVYGA | 366 nM | 224 nM | 427 nM | –
2 | LIVAALVFL | – | – | – | Kd [1, 15]: 9.38 nM; Kd [2, 15]: 136 nM; Kd [3, 15]: 10.5 nM
3 | LIYRQLTSNV | 78.7 nM | 7.49 nM | 169 nM | –
4 | LLVAAGMEA | – | – | – | Kd [1, 15]: 17.4 nM; Kd [2, 15]: 16.6 nM; Kd [3, 15]: 117 nM
5 | LMGHFSWWTA | – | – | – | Kd [1, 15]: 19.2 nM; Kd [2, 15]: 135 nM; Kd [3, 15]: 97.4 nM
6 | LNQTVYSLV | – | – | – | Kd [1, 16]: 3330 nM; Kd [2, 16]: 1500 nM; Kd [3, 16]: 5100 nM
7 | LTQVKELGIA | 11800 nM | 150 nM | 18.1 nM | –
8 | LVFLILCFT | – | – | – | Kd [1, 15]: 2490 nM; Kd [2, 15]: 1850 nM; Kd [3, 15]: 1370 nM
9 | LVKDESIQL | 122 nM | 649 nM | 1400 nM | –
10 | MQKFTILEYL | 164 nM | 279 nM | 909 nM | –
11 | NILMDSIFV | 252 nM | 223 nM | 170 nM | –
12 | NLCKYLRGHT | ≥ 39600 nM | 8040 nM | ≥ 69800 nM | –
13 | NLVQYRILPM | 3990 nM | 1330 nM | ≥ 24500 nM | –
14 | NVSGVPHSV | 825 nM | 24 nM | 278 nM | –
15 | PTDMLKLFT | ≥ 29100 nM | ≥ 47000 nM | ≥ 69200 nM | –
16 | PTWFGISFR | – | – | – | Kd [4, 17]: ≥ 20000 nM; Kd [5, 17]: 209 nM
17 | QIGGEAIFLI | 8.19 nM | 0.201 nM | 14.8 nM | –
18 | QLCDEITIL | – | – | – | Kd [6, 18]: 744 nM; Kd [7, 18]: 1200 nM
19 | QVLQQNNSFI | 544 nM | 3180 nM | 2320 nM | –
20 | RAFIYSIMET | 81.4 nM | 69.7 nM | 578 nM | –
21 | REKIDGVKL | – | – | – | Kd [8]: 46.9 nM
22 | RFLTHYFTK | – | – | – | Kd [9, 17]: ≥ 20000 nM

Row | Sequence | Kd [1, 14] | Kd [2, 14] | Kd [3, 14] | also measured
23 | RILGAGCFV | – | – | – | Kd [1, 15]: 24.4 nM; Kd [2, 15]: 53.3 nM; Kd [3, 15]: 38 nM
24 | RLYYDSMSY | – | – | – | Kd ([9]; source organism: SARS-CoV1): 7950 nM; Kd ([6]; source organism: SARS-CoV1): ≥ 22800 nM; Kd ([5]; source organism: SARS-CoV1): 6940 nM; Kd ([7]; source organism: SARS-CoV1): 130 nM; Kd [10]: 4810 nM; Kd [11]: 778 nM
25 | RSWQPPQPR | – | – | – | Kd [4, 19]: ≥ 20000 nM; Kd [5, 19]: 35 nM
26 | SAVFKDSFL | 231 nM | 536 nM | 1140 nM | –
27 | SICLDYIIV | 1460 nM | 8650 nM | 689 nM | –
28 | SISEINEWL | 0.129 nM | 1.84 nM | 6.29 nM | –
29 | STVDVRNIV | 6330 nM | 3480 nM | 1630 nM | –
30 | TAYIGTSNWT | 1770 nM | 1050 nM | 220 nM | –
31 | TIDKSSPLYI | 387 nM | 12.3 nM | 1820 nM | –
32 | TLNEYKQLYT | 144 nM | 773 nM | ≥ 69800 nM | –
33 | TMKAIEKDRL | 171 nM | 1060 nM | ≥ 69800 nM | –
34 | TSSDTYACW | – | – | – | Kd [12]: 19400 nM; Kd [11]: 14.5 nM
35 | TVPTNDHIPV | 1680 nM | 1890 nM | 515 nM | –
36 | VASDVCKKNL | ≥ 50900 nM | ≥ 70400 nM | ≥ 69800 nM | –
37 | VLALYSPPLI | 15.7 nM | 101 nM | 868 nM | –
38 | VTTNNLLEQL | 4690 nM | 17900 nM | 5910 nM | –
39 | VVGKPYKEV | – | – | – | Kd ([6]; source organism: Rickettsia prowazekii): 1960 nM; Kd [13]: 605 nM
40 | WLTPFEKEFT | 2370 nM | 1550 nM | ≥ 30800 nM | –
41 | WMARRHAER | – | – | – | Kd [4, 20]: ≥ 20000 nM; Kd [5, 20]: 13.9 nM
42 | YIPPCQCTV | 196 nM | 445 nM | 92.5 nM | –
43 | YTRPEIDVL | 115 nM | 73.6 nM | 154 nM | –
44 | YVPSAEDNYL | ≥ 70000 nM | ≥ 70400 nM | ≥ 69800 nM | –
